Changes are numbered by the printed parent chain. Names may count otherwise.

The target of this data set is T1, PUF4 RNA-binding domain (Saccharomyces cerevisiae, UniProt P25339 537-888).
T1 sequence: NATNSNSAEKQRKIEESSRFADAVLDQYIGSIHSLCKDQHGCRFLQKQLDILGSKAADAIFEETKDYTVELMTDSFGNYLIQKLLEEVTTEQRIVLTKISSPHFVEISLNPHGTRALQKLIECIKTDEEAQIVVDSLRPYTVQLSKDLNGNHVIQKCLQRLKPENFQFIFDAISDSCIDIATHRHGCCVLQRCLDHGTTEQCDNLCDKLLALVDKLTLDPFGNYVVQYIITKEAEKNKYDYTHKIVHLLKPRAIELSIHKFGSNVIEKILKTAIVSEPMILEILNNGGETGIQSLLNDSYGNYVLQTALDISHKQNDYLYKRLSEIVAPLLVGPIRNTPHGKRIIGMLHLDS
Nature of the data set: Mg; RNA-MaP; 20 mM Na-HEPES pH 7.4, 30 mM KOAc, 0.75 mM MgCl2, 0.1% Tween-20, 5% glycerol, 0.1 mg/mL BSA, 2 mM DTT; 25 C; 0.0125-409.6 nM protein. To be noted: tags: N-His6-TEV cleaved; C-SNAP kept, Cy3B-labelled; label: tethered on chip by stalled RNA polymerase.

By Kd is commonly meant the free concentration of one partner at which half of the binding sites on the other are occupied at equilibrium, for simple one-to-one binding. Low values mean higher affinity, high ones lower affinity. Molecule UCUCUUUGUAUAGUGUCUCUU (ssRNA) [Ib_S1_P4E.1_K4.1_C4.1_H4.1_A4.1_[T7G]_F4.1_[A9G]_T4.1] returned a Kd of 13 nM.

The molecule UCUCUUUGUAUCUUUUCUCUU (ssRNA) [Ib_S1_P4E.1_K4.1_C4.1_H4.1_A4.1_[A6C]_F4.1_[A9T]_T4.1] had a Kd of 20.9 nM.

In the case of UCUCUUUGUAUGUUUUCUCUU (ssRNA) [Ic_S1_P4E.1_K4.1_C4.1_H4.1_A4.1_[A6G]_F4.1_[A9T]_T4.1], the equilibrium dissociation constant (Kd) came out at 40 nM. This Kd is about 1.9-fold higher than that of the molecule before.

B1: Ic_S4_P5E.1_K5.1_C5.1_H5.1_A5.1_[T5C]_[T6A]_[A7G]_F5.1_[T9C]_[A10C]_T5.1 (ssRNA)
RNA: UUUGACAACUGAUCGUUCUUUCUUGUACAGUCCUUCUUUCUCGAUCAGUUGUCUUU
In the case of B1, the Kd came out at 13.2 nM.

B2: Ic_S4_P5E.1_K5.1_C5.1_H5.1_A5.1_[T5A]_[A7T]_F5.1_[T9G]_[A10C]_T5.1 (ssRNA)
RNA: B1 RNA with C28A, A29U, G30U, C32G
As for B2, the equilibrium dissociation constant (Kd) was 46.7 nM.

B3: Ic_S4_P5E.1_K5.1_C5.1_H5.1_A5.1_[T5A]_F5.1_[T8C]_[T9C]_[A10T]_T5.1 (ssRNA)
RNA: B1 RNA with C28A, A29U, G30A, U31C, C33U
For B3, the affinity, expressed as Kd, was 379 nM.

B4: Ic_S4_P5E.1_K5.1_C5.1_H5.1_A5.1_[T5C]_[T6A]_[A7G]_F5.1_[A10G]_T5.1 (ssRNA)
RNA: B1 RNA with C32U, C33G
B4 returned a Kd of 27.4 nM.

B5: Ic_S4_P5E.1_K5.1_C5.1_H5.1_A5.1_[T5A]_[T6A]_[A7T]_F5.1_[T8C]_[T9A]_[A10G]_T5.1 (ssRNA)
RNA: B1 RNA with C28A, G30U, U31C, C32A, C33G
In the case of B5, the Kd worked out at 180 nM.

B6: Ic_S4_P5E.1_K5.1_C5.1_H5.1_A5.1_[T5A]_[A7C]_F5.1_[T8A]_[A10C]_T5.1 (ssRNA)
RNA: B1 RNA with C28A, A29U, G30C, U31A, C32U
Turning to B6, the equilibrium dissociation constant (Kd) was determined as 432 nM.

B7: Ic_S4_P5E.1_K5.1_C5.1_H5.1_A5.1_[T5C]_[T6A]_F5.1_[T9C]_[A10T]_T5.1 (ssRNA)
RNA: B1 RNA with G30A, C33U
In the case of B7, the Kd is 19.7 nM. This Kd lies about 22-fold lower than the previous one.

B8: Ic_S4_P5E.1_K5.1_C5.1_H5.1_A5.1_[T6G]_[A7C]_F5.1_[T8C]_[T9A]_[A10T]_T5.1 (ssRNA)
RNA: B1 RNA with C28U, A29G, G30C, U31C, C32A, C33U
B8 displayed an equilibrium dissociation constant (Kd) of 56.4 nM.

B9: Ic_S4_P5E.1_K5.1_C5.1_H5.1_A5.1_[T6C]_[A7C]_F5.1_[T8A]_[T9G]_[A10C]_T5.1 (ssRNA)
RNA: B1 RNA with C28U, A29C, G30C, U31A, C32G
As to B9, binding was put at a Kd of 1010 nM.

B10: Ic_S4_P5E.1_K5.1_C5.1_H5.1_A5.1_[T5C]_[T6A]_F5.1_[T8A]_[A10C]_T5.1 (ssRNA)
RNA: B1 RNA with G30A, U31A, C32U
For the molecule B10, the affinity, expressed as Kd, was 26.1 nM.

B11: Ic_S4_P5E.1_K5.1_C5.1_H5.1_A5.1_[T5A]_[A7C]_F5.1_[T8A]_[T9G]_[A10C]_T5.1 (ssRNA)
RNA: B1 RNA with C28A, A29U, G30C, U31A, C32G
B11: the Kd was 1930 nM.

B12: Ic_S4_P5E.1_K5.1_C5.1_H5.1_A5.1_[T5A]_[A7T]_F5.1_[T8C]_[T9C]_[A10T]_T5.1 (ssRNA)
RNA: B1 RNA with C28A, A29U, G30U, U31C, C33U
With B12, binding was characterised by a dissociation constant (Kd) of 179 nM.

B13: Ic_S4_P5E.1_K5.1_C5.1_H5.1_A5.1_[T5G]_[T6C]_F5.1_[T8G]_[A10C]_T5.1 (ssRNA)
RNA: B1 RNA with C28G, A29C, G30A, U31G, C32U
Molecule B13 displayed a Kd of 976 nM. This Kd lies about 5.5-fold higher than the previous one.

B14: Ic_S4_P5E.1_K5.1_C5.1_H5.1_A5.1_[A7G]_F5.1_[T8G]_[A10T]_T5.1 (ssRNA)
RNA: B1 RNA with C28U, A29U, U31G, C32U, C33U
Molecule B14 registered a dissociation constant (Kd) of 881 nM.

B15: Ic_S4_P5E.1_K5.1_C5.1_H5.1_A5.1_[T5C]_[A7T]_F5.1_[T8A]_[T9C]_[A10G]_T5.1 (ssRNA)
RNA: B1 RNA with A29U, G30U, U31A, C33G
B15 came in with a dissociation constant (Kd) of 561 nM.

B16: Ic_S4_P5E.1_K5.1_C5.1_H5.1_A5.1_[T6C]_[A7G]_F5.1_[T8A]_[A10C]_T5.1 (ssRNA)
RNA: B1 RNA with C28U, A29C, U31A, C32U
The molecule B16 came in with a Kd of 1840 nM.

B17: Ic_S4_P5E.1_K5.1_C5.1_H5.1_A5.1_[T6C]_[A7T]_F5.1_[T8A]_T5.1 (ssRNA)
RNA: B1 RNA with C28U, A29C, G30U, U31A, C32U, C33A
The molecule B17 yielded an equilibrium dissociation constant (Kd) of 3.97 nM.

B18: Ic_S4_P5E.1_K5.1_C5.1_H5.1_A5.1_[T5C]_[T6G]_[A7C]_F5.1_[T8A]_[T9G]_[A10C]_T5.1 (ssRNA)
RNA: B1 RNA with A29G, G30C, U31A, C32G
In turn, B18 returned a dissociation constant (Kd) of 882 nM.

B19: Ic_S4_P5E.1_K5.1_C5.1_H5.1_A5.1_[T5C]_[T6A]_[A7T]_F5.1_[T8C]_[T9C]_T5.1 (ssRNA)
RNA: B1 RNA with G30U, U31C, C33A
The molecule B19 displayed a dissociation constant (Kd) of 20.4 nM.

B20: Ic_S4_P5E.1_K5.1_C5.1_H5.1_A5.1_[T6C]_F5.1_[T9G]_[A10C]_T5.1 (ssRNA)
RNA: B1 RNA with C28U, A29C, G30A, C32G
The molecule B20 had an equilibrium dissociation constant (Kd) of 14.6 nM.

B21: Ic_S4_P5E.1_K5.1_C5.1_H5.1_A5.1_[T6G]_[A7T]_F5.1_[T8A]_[T9C]_[A10C]_T5.1 (ssRNA)
RNA: B1 RNA with C28U, A29G, G30U, U31A
On to B21, for which binding was characterised by a dissociation constant (Kd) of 28.6 nM.

B22: Ic_S4_P5E.1_K5.1_C5.1_H5.1_A5.1_[T5G]_[T6C]_[A7T]_F5.1_[T9A]_[A10C]_T5.1 (ssRNA)
RNA: B1 RNA with C28G, A29C, G30U, C32A
Molecule B22 gave a Kd of 24.4 nM. This Kd and that of the molecule before are within 1.5-fold of each other.

B23: Ic_S4_P5E.1_K5.1_C5.1_H5.1_A5.1_[T5A]_[T6A]_[A7C]_F5.1_[T8C]_[T9G]_[A10C]_T5.1 (ssRNA)
RNA: B1 RNA with C28A, G30C, U31C, C32G
In turn, B23 yielded a dissociation constant (Kd) of 703 nM.

B24: Ic_S4_P5E.1_K5.1_C5.1_H5.1_A5.1_[T6A]_[A7C]_F5.1_[T8C]_[T9C]_[A10G]_T5.1 (ssRNA)
RNA: B1 RNA with C28U, G30C, U31C, C33G
Molecule B24 yielded a Kd of 117 nM.

The values above are taken from article PMC9352680, “A comprehensive thermodynamic model for RNA binding by the Saccharomyces cerevisiae Pumilio protein PUF4”.
